Reference: IntAct's records for PubMed 19379692

B1: SET domain-containing protein 3 (Saccharomyces cerevisiae), P36124 (parent)
chain: MSVPNSKEQSLLDDASTLLLFSKGKKRAEEASKIGSKTDTIEHDESHEREKKGAIEMAAAALATASTVSLPLKKATEQSAAEAATSTAAKEETENQPQKQPQWPVPDSYIVDPDAGIITCICDLNDDDGFTIQCDHCNRWQHAICYGIKDIGMAPDDYLCNSCDPREVDINLARKIQQERINVKTVEPSSSNNSASNKNNGRDRASSTTISDVGDSFSTDQDNTNHRDKRRKRNPSNNSIDSKNESASVNSSDGLTSMPKKKEHFLSAKDAYGAIYLPLKDNVFKSDLIEPFLNKHMDDNWVIQYPHKTFKSVSIEVKPYADIAYSRTYPGFTKLGVYLKKDCIKGDFIQEILGELDFYKNYLTDPRNHYRIWGTAKRRVIFHSHWPIYIDARLSGNSTRYLRRSCQPNVELVTIKLQDTDNRNDKSSGRKSSRIKFVLRALRDISEDEELYIKWQWDSKHPILKLIKGMTIDSLDDLERYGLINSVETILSNGECGCGNNSKDCYLLKVKRYAQSLYKSVKSRGKMNNRYKLNEILNQYNCKKRREPPILHRLEEKAQNTIERAPILLNNFYRQKFLNRNNGPKIPQKNTIDSTNNPDDIAKPFKFALFAQHSSNISVPKKNETSEKPLIITKSTDYDESHITNIEELPIPVLLPINKTSRQTANDVEESQSKNEHKLSRTPSLSNFNKELSKEAQHSQAKTKEIMTEASVNSRRESTPESIMHLSDFSSSQLHSKKKLSFADYRKKLLK

Variants of: B1
Conditions: with h4_yeast HHF1, P02309

Variant	effect of a mutation on the interaction
W140A	decreasing interaction
